Test results as given in patent publication US20250101129A1 (AJINOMOTO, published 2025).

These binders were tested against T1, Fc protein of human IgG1 antibody (human, UniProt P01857-1 100-330 = IgG part, limits assumed) (assay: SPR Biacore T200, 25 C, Fc of human IgG1 amine-coupled on CM5, peptide as analyte, single cycle kinetics).
T1 construct: domain: Fc; Immobilised on a CM5 chip by amine coupling at about 1400 RU; also called Fc region of an IgG1 antibody

| Kd | Binder |
| --- | --- |
| 12.7 nM | QET-Fc3K-PA32-Z34CM (C-terminal -NH2 as printed in the 1st table; N-terminal Gln designed to be pyroglutamylated) QETRGNCAYHKGQIIWCTYHGGAAPAAPAPAAPAAPAPAAPAAPAPAAPAAPAPGGFNMQCQRRFYEALHDPNLNEEQRNARIRSIREEC |
| 8.98 nM | QET-Z34CM-PA48-Fc3K (C-terminal -NH2 as printed in the 1st table; N-terminal Gln designed to be pyroglutamylated) QETFNMQCQRRFYEALHDPNLNEEQRNARIRSIREECGGAAPAAPAPAAPAAPAPAAPAAPAPAAPAAPAPAAPAAPAPAAPAAPAPGGRGNCAYHKGQIIWCTYH |
| 7.91 nM | QET-Z34CM-PA32-Fc3K (C-terminal -NH2 as printed in the 1st table; N-terminal Gln designed to be pyroglutamylated) QETFNMQCQRRFYEALHDPNLNEEQRNARIRSIREECGGAAPAAPAPAAPAAPAPAAPAAPAPAAPAAPAPGGRGNCAYHKGQIIWCTYH |
| 8.48 nM | QET-Fc3K-PA48-Z34CM (C-terminal -NH2 as printed in the 1st table; N-terminal Gln designed to be pyroglutamylated) QETRGNCAYHKGQIIWCTYHGGAAPAAPAPAAPAAPAPAAPAAPAPAAPAAPAPAAPAAPAPAAPAAPAPGGFNMQCQRRFYEALHDPNLNEEQRNARIRSIREEC |
